Source: publication PMC9889658, “The structure of MadC from Clostridium maddingley reveals new insights into class I lanthipeptide cyclases” (Frontiers in Microbiology, 2022)

Tests used:
Conditions in all cases: both partners purified
[1] = molecular target: T1, MadC (lanthionine cyclase of Clostridium sp. maddingley), His6-tag cleaved off (Clostridium sp. maddingley); assay: ITC; MadC (200–600 μM) in the syringe, 20 injections of 2 μl into the cell with the leader variant (20–60 μM); 25°C; 50 mM HEPES, 500 mM NaCl, pH 7.5; at least triplicate
T1 construct: MadC, class I lanthipeptide cyclase, Clostridium sp. maddingley, NCBI EKQ50560.1, synthetic gene from GenScript in pET28b(+); calculated molecular weight 49.71 kDa; also called cleaved MadC; class I cyclase MadC; not shown: His6, N-terminal, cleaved

[2] = molecular target: T2, His6-MadC (hexa-histidine tagged cyclase MadC, wild type) (Clostridium sp. maddingley); assay: SPR; His6-MadC variant captured on a poly-NTA (Ni2+) chip to 400–500 RU; L3 injected at 180 nM to 30 μM; 200 mM NaCl, 50 mM HEPES/NaOH pH 8; affinity from the maximum RU values
T2 construct: MadC, class I lanthipeptide cyclase, Clostridium sp. maddingley, NCBI EKQ50560.1, in pET28b(+) with N-terminal His6-tag and thrombin cleavage site; Thrombin cleavage site between the tag and MadC; Captured by the His-tag on the Ni-NTA chip in SPR; also the crystallised form (PDB 8BYK); also called wild-type MadC; not shown: His6, N-terminal, kept

[3] = molecular target: T1, MadC (lanthionine cyclase of …); assay: ITC; MadC (200–600 μM) in the syringe, 20 injections of 2 μl into the cell with the leader variant (20–60 μM); 25°C; 50 mM HEPES, 500 mM NaCl, pH 7.5; at least triplicate; remark: listed apart in the source

| Binder | Kd [1] [µM] | Kd [2] [µM] | Kd [3] [µM] |
| --- | --- | --- | --- |
| MGKLDDFDLDVKVKADTTKVGPAITSKSLCTPG (synthetic, unmodified peptide (no lanthionine rings); MadA 1-33 from Table S4) [maddinglicin leader peptide construct madL3, Leader 3 (−23 − +10)] | 5.69 | 16 ± 7 |  |
| MGKLDDFDLDVKVKADTTKVGPA [maddinglicin leader peptide construct madL1, Leader 1 (−23 – −1)] | 10.4 |  | 10.5 ± 4.3 |
| MGKLDDFDLDVKVKADTTKVGPAITSKS [maddinglicin leader peptide construct madL2, Leader 2 (−23 − +5)] | 9.35 |  |  |
